Reference: paper PMC5034536, “Molecular insights into substrate recognition and catalytic mechanism of the chaperone and FKBP peptidyl-prolyl isomerase SlyD” (BMC Biology, 2016)
Like-named read-outs stand apart in the source and are kept apart here. Blank lines part the entries; values can stand above or below the binder they belong to. No end group written: not given here.

Legend:
[1] = biological target: full-length SlyD from Thermus thermophilus (TtSlyDFL) (Thermus thermophilus)
[2] = biological target: full-length SlyD from Thermus thermophilus (TtSlyDFL) (Thermus thermophilus); remark: listed apart in the source

- Kd [1]: 133 µM
- dH [1]: -0.4 kcal/mol
- stoichiometry N [1]: 1.44
B1: SlpA linker peptide (peptide)
peptide: SGLVPRGS-NH2

- Kd [2]: 163 µM
- dH [2]: -5.1 kcal/mol
- stoichiometry N [2]: 1.29
B2: S2-short8 peptide (peptide)
peptide: WNPKMKP-NH2

- Kd [1]: 158 µM
- dH [1]: -14.6 kcal/mol
- stoichiometry N [1]: 1.13
B3: T1 peptide (peptide)
peptide: VGSNSYPHKYNNYEG-NH2
